# Earlier results as cited in publication PMC4174909.
# Target: His37 (UniProt position 37, IIGILHLILWI)
substance,measurement,value
Matrix protein 2 (M2 proton channel) (Influenza A virus (strain not stated for the quoted pKa values; the experiments of this article use A/Udorn/72)),pKa,8.2 and about 6 and about 4 to 5
